The source of these data is patent US20040186051A1 (Genentech, published 2004).

The target in the assay is T1, DR4 receptor (human, UniProt O00220 24-239, limits assumed).
T1 construct: The construct used in the ELISA is not described
The assay is described as follows: receptor binding ELISA. On the technique in general: An ELISA detects its analyte on a solid surface through an enzyme-linked reagent.

T1 sequence (O00220 24-239 H141R/R209T limits assumed): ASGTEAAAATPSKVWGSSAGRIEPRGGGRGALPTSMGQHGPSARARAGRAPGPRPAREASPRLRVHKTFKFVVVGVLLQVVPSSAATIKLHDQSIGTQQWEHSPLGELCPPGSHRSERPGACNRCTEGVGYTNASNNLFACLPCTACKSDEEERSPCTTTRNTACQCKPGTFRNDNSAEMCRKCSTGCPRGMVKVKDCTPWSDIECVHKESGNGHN

B1: PEG-R170C-Apo2L.0(32176-78) (ligand)
chain: VRERGPQRVAAHITGTRGRSNTLSSPNSKNEKALGRKINSWESSRSGHSFLSNLHLCNGELVIHEKGFYYIYSQTYFRFQEEIKENTKNDKQMVQYIYKYTSYPDPILLMKSARNSCWSKDAEYGLYSIYQGGIFELKENDRIFVSVTNEHLIDMDHEASFFGAFLVG
modifications: Cys170 either carries methoxy-PEG-maleimide, MW 2,000 D, or is in a disulfide bond with Cys170 of another trimer; rest blocked with iodoacetamide
notes: the number of chains is therefore not one value; also called partially PEGylated and disulfide crosslinked R170C-Apo2L.0; PEG-R170C-Apo2L.0 lot 32176-78
A word on the EC50: it is the midpoint of the concentration-response curve. Read a low EC50 as an effect from little substance. For B1, the EC50 was determined as 0.0045 µg/mL.

B2: PEG-R170C-Apo2L.0 (32176-87C) (ligand)
chain: VRERGPQRVAAHITGTRGRSNTLSSPNSKNEKALGRKINSWESSRSGHSFLSNLHLCNGELVIHEKGFYYIYSQTYFRFQEEIKENTKNDKQMVQYIYKYTSYPDPILLMKSARNSCWSKDAEYGLYSIYQGGIFELKENDRIFVSVTNEHLIDMDHEASFFGAFLVG
modifications: methoxy-PEG-maleimide, MW 2,000 D, on Cys170 (one PEG per monomer); residual unpegylated Cys170 carboxyamidomethylated with iodoacetamide
notes: also called PEG-2K-R170C-Apo2L.0; R170C-PEG-2K
On to B2, for which the EC50 stood at 0.0422 µg/mL.
